Results: the DeepSol protein solubility set

Experiment: soluble on expression in E. coli; label from the status in PepcDB or PDB records

Soluble on expression in E. coli, not soluble:
MGSDKIHHHHHHMSRNRPAPSGDQFDLFLPYVADMPMRDQREMMERPFFSLAKSKRVKPIDYTSPDGKLWVHVSGNPDYGMATIWDADILIYCASVLADMARRGVNDVPRKLHLMPYDLLRAIGRPTTGRAYELLGQALDRLVATTIKTNIRAENRREATFSWLDGWTQLVDEKTERSRGMTIELSNWFWEGVMMKGGVLSIDRAYFDITGGRERWLYKVARKHAGGAGEEGFAISMPVLFEKSGAEGEYRRFKFEILKLAEKNALPGYGLSVETARGGEPMLRMRRVDGKDGADRALPEAGRQGAEARTVASTAPDVSPGKHSSGASETVDVRALIRKTVAGVSDAATRGFMTDETIRHLRETCPGWDLHALHAEFESWVNGDSARLPANWQKAFIGWVKRHHEKNGHALRR, MGSDKIHHHHHHMSRPKILYFITEDWYFCSHRLPLALAARDAGYDVAVVTNVNEHADVIRRAGIRLIPFDLSRKGMNPASELAVLARLIALYRKEKPDIVHQVAMKPVLYGSLAARLSGVSRVVNALAGLGYIFTSDQPKARFLRPVIGSAFRGLLNSRRSRLILQNQDDRAKFIRKRFISEKRIRLIRGSGVDTAVFVPTPEPPGVPVVILPSRMLWDKGVREFVDAAGQLKKRGISARFVLVGDADPHNPSAIHTEQLTAWHAEGAVEWWGRRDDMPAVFEQSHIVCLPSYREGLPKVLLEAASCGRPIVTTDTPGCRDVVRQGENGLLVPVRGTAELADALQLLIEQPALRKKMGCKGREIVVSEFALEKVVAKTMNIYRELLKP, MGSDKIHHHHHHMSRTITIDPVTRIEGHATITIRLNDAGAVADARFHVTEFRGFERICIGRSIWEMPGITARICGICPVSHSISAARAGDAILGVEIPPAAVHLRRIANLASLIQSHALSFFHLSAADLLMGMDEEPSRRNLWGLVAHHPEVARGGIRLRQIGQKIVSDVAGESIHPSWAVPGGVREPLSPEGRDRIAALLPEGLAIVRGALGMLDGIYARHEAEITAYGDFPSLFAGLTASDGGLEHYDGSLRFTDSAGVHVDELSPEHYAQAVTERAEPWSYMTFPYYHPHGDREGGGMFRVGPLARLNICDRAGTPEADRELAAFRQVRGAGGMVTGSFHYHHARLIEILHALERIGMLLDEPDILDRHVRSEAGVNRPAGVGFCEAPRGTLFHDYEVDDDGIVSRVNLLIATGMNNLAINRTIRQVAAEFIRGGEFTEGILNRIEHGVRAYDPCLSCATHAYGRMPLRVMLLGPDGTVLDEAKRGR, MGSDKIHHHHHHMSRTTVLRSAESDLTLHGRDAMGTLMRTGTLTNFLKVAQQLDFDPQPLLRKLGLTKEMLADPECLIPGSASVTLLKESARLTQCPTFGLRVAERWQLSDLGVISVLLTHQSTLRDAVGTLIQYRHLLNEFLVIRMEDVGRKVIVREELVADEAGTSIQSTELVLGSLSRLCSTLMGATWHPLSVHFTHDPPPDLRLHRRVFGGKLEFASSFNGMICRAADMDFPNPIADPVMARHARRLLEGLPGAKEPSIVLEVRKAIYLLLPLGRATIEQVAQGLGMNVRMLQRQLESAGMVFSDMVNGVRRDLVIHYMDNKSYTLGRIAQSLGYSAYGSFVRWFAAQFGMTPTRWQSLRQQKEDGRSPIQIHC, MGSDKIHHHHHHMSSLQISQGTFRLSDTKTLHLDSLTLNAGDSWAFVGANGSGKSALARALAGELPLLTGERQCRFTRITRLSFEQLQKLVSDEWQRNNTDMLSPGEDDTGRTTAEIIQDDVHHPARCAILAQQFGISALLDRRFKYLSTGETRKALLCQALMSEPELLILDEPFDGLDVTARQQLAQRLTALNQAGMTLALVLNRFDEIPDFVQFAGVLADCTLAETGTTAELLQRALVAQLAHSERLTDVQLPEPDEPSARHALPDGEPRIVLNDGVVSYNDRPILHHLSWRVNPGEHWQIVGPNGAGKSTLLSLITGDHPQGYSNDLTLFGRRRGSGETIWDIKKHIGYVSSSLHLDYRVSTTVRNVILSGYFDSIGIYQAVSDRQRKLAQQWLDILGIDKRTADAPFHSLSWGQQRLALIVRALVKHPTVLILDEPLQGLDPLNRQLVRRFVDVLIRQGETQLLFVSHHAEDAPACITHRLEFVPEGERYKYVSGRCNN, MGSDKIHHHHHHMSSLTKMLLILDLFSVDKPIWSADEIIQYCGHSRPTGYRYVKELCDAGLLRRAEGGYSLGPRVIELDYYIRQCDPLLIACRPVMVRVAQESGCDVLLASMYGTKIMAVHQELAHETGQIAFGRGRPMPLFRGGGSKVLLASMTASQLKKLYDRYGAEIAEAGLGATWADFRKQMLKYRNDGHVVSIGELDPNAAGVAIPIPVGDALDPAALVILTTRSRFDLMEKALLVDMAMNAARQIETSMRGNREVQAKALLLS, MGSDKIHHHHHHMSSMSARNPFRPTFGVSPTVLAGRDSLLQSFKLGLAEGPGSPFRALLISGSRGMGKTVLLNEFEDAAASQGWITLRAYPDNSMVDGLVNSAIPEALQNLDGPQSKRMLSGVAIPGIATVTAIADPTKKDPTPTLISRLRELATRLQKHGSGILITLDELQSANVDLLHVLATAVQDLLRDDFDIALVAAGLPEGIDRLLQHEGTTFIRRAERILLNPVNHEDSVEMFLYTAAYGYRHMTSEAAELAAQISKGYPYSMQLTGSLAWARSTLDNSDTIQAEQVDAVRDEVVRRMGMQVHEPSLHQVPDGELTILYAIAQLSKNGEMVSTGDIAHLMGVKPNALSMQRKQLLSRGLVEVPKYGFLNFTLPYMREHLLNSPHHRPIT, MGSDKIHHHHHHMSSSAPIDYAALADRIHTWGRELGFQQVGITDTDLAAHERYLERWLAAGYHGEMHFMAKHGSKRTRPEELVPGTLRVVSVRMDYLPPEVETTKVLGQPERAYISRYALGRDYHKLIRKRLATLAKRIEDEVGAYGYRAFVDSAPVMERALAQKAGLGWFGKNAMLLNPQAGSLFFLGELYTDLPLPVDAPFDSEHCGKCSRCQTACPTGAIVDDKVIDSRRCISYLTIELAGSIPEEYREAMGNRVYGCDDCQLVCPFTRFTRVSREDDFAPRHDLDRASLVRLFAWSEEEFLARTEGSAIRRIGYERWLRNLAIGLGNAPWSDQVESALRARLAYPSDLVREHVRWGLEQQRRKRERRIASDVDAPAAPERSA, MGSDKIHHHHHHMSSSTTPDLLYPSADKVAEPSDNIHGDELRLRERIKDNPTNILSYFQLIQYLETQESYAKVREVYEQFHNTFPFYSPAWTLQLKGELARDEFETVEKILAQCLSGKLENNDLSLWSTYLDYIRRKNNLITGGQEARAVIVKAFQLVMQKCAIFEPKSSSFWNEYLNFLEQWKPFNKWEEQQRIDMLREFYKKMLCVPFDNLEKMWNRYTQWEQEINSLTARKFIGELSAEYMKARSLYQEWLNVTNGLKRASPINLRTANKKNIPQPGTSDSNIQQLQIWLNWIKWERENKLMLSEDMLSQRISYVYKQGIQYMIFSAEMWYDYSMYISENSDRQNILYTALLANPDSPSLTFKLSECYELDNDSESVSNCFDKCTQTLLSQYKKIASDVNSGEDNNTEYEQELLYKQREKLTFVFCVYMNTMKRISGLSAARTVFGKCRKLKRILTHDVYVENAYLEFQNQNDYKTAFKVLELGLKYFQNDGVYINKYLDFLIFLNKDSQIKTLFETSVEKVQDLTQLKEIYKKMISYESKFGNLNNVYSLEKRFFERFPQENLIEVFTSRYQIQNSNLIKKLELTYMYNEEEDSYFSSGNGDGHHGSYNMSSSDRKRLMEETGNNGNFSNKKFKRDSELPTEVLDLLSVIPKRQYFNTNLLDAQKLVNFLNDQVEIPTVESTKSG, MGSDKIHHHHHHMSTINNRNPKISVLMSIYKENSLYVRQAIDSILNQSFGDFEFLIYNDNPEDFILDKLVLEIARKDSRIQYQRNEKNIGLAATLNRQICVAKGEYLARMDADDISLPDRFIMQVEYLDRNTNIAVLGTWAKIIDKEGQVISSASLKTGYNNIIACAMCDSPLFHPSVMIRKEFLQLNGLSYNEDFSCAQDYELWSRILFEKGGYIDNLSVYLIYYRVTTSQISSIKQQQQIYNSLLVRRNNISFFLNKYSIDLPRKITKTDVCNLINRISEFKEESSTHKIYVNILFMYCMSLPRLEKIILLIKYVCVFYSEFSLKQMCLLVASSFFMRKFPLCSLNIMLH, MGSDKIHHHHHHMSTLDQSGTFHLAGRNIRRLGYGAMQLAGKGVFGPPKDREEAIAVVREAVDSGVNHIDTSDFYGPHITNQIIREALHPYADDLLIVTKVGATRGEDASWNAAFSKEELTQAVHDNLRNLGKEVLDVVNLRAMFDVHGPAEGSLAAPLEVLADLQRQGLIRHIGVSNVTPRQITEAGEIVEIVCVQNQYNLAHRQDDALIDTLAAQGIAYVPFFPLGGFSPLQSTVLSDVATQLDASPLQVALAWLLKRSSNILVIPGTSSRAHLRQNLAAASLDLPDSAMTALAAIGG
